The target of assay [1] is human ErbB2 on BT474 human breast tumor cells (human) (UniProt P04626). Kind of assay: cell-based or functional assay.
For assay [2] the target is unchanged. Put plainly: Scatchard analysis, 125I-labelled antibody on BT474 cell monolayers, 4 hours on ice.

From patent US20170190786A1 come the findings set out here.

Broadly, the Kd is the constant that tells how readily two partners part at equilibrium. Low values mean tighter binding, high ones weaker binding.

In assay [1], “anti-ErbB2 IgG1κ murine monoclonal antibody 4D5” came in with a % apoptosis of the BT474 cell population of 41.9% and a proportion of S-phase cells (BT474) of 5.4%. Further, in assay [2], the Kd is 6.5 nM.
Regarding “anti-ErbB2 IgG1κ murine monoclonal antibody 7C2”, in assay [1], the % apoptosis of the BT474 cell population came out at 60.5% and the proportion of S-phase cells (BT474) was determined as 64.9%.
